Measured values from the supplement of paper PMC12764529.
± gives the half width of the 95% confidence interval.

test: folding stability dG unfold from chymotrypsin proteolysis; higher = more stable
Method in brief: (§1)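 Designed mini-proteins with no cysteine and under 80 residues were kept only if AlphaFold2 dimer inter-PAE was above 15. In a PA-tagged cDNA display construct, they were digested with trypsin and chymotrypsin and then sequenced. K50 was inferred by Bayesian fitting of counts, and unfolding free energy was derived per protease or combined against a sequence-predicted unfolded-state K50 and a shared folded-state K50.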

| Sequence | folding stability dG unfold [kcal/mol] |
| --- | --- |
| SAGGSAEEIARKLAEELAEEGEEVEVEVVEVEVEKVDGKEKVIRIRVKVKLPNGEELELELEIKLDELSAGG [r13_215_TrROS_Hall] | 2.18 ± 0.28 |
| SAGGSMPETVKVRVRNADGSLLTLEITRDADGELTVTLEVDGKTVELSLEELEKLPPGVEVVEVEPSAGGSA [r2_431_TrROS_Hall] | 2.44 ± 0.087 |
| SAGGGPPPVEVTTSTDPSTGKVTTTVTAGPAGTRFTSSSPNGSSTTTTTVTYVGDTWEVSTSSTSSSSAGGS [r16_631_JUSTAS] | 1.37 ± 0.11 |
| SAGGSAGGSAGGIKITPDIRELLRQQGKPFSEEEIQGIAKYIAKHFKEKGFEDVTIRIPWSAGGSAGGSAGG [r7_512_TrROS] | 0.783 ± 0.2 |
| SAGWKPITAEEIKKLVKEFAEKAPPGDKRPVTVEIRLPLPNGRHWVFTIKVERTDNNVKVKIEVQPYNSAGG [r19_220_TrROS] | 3.64 ± 0.039 |
| SAGGPVFLGFEEALEFIEKAFENGEDVVVVARLPDGGLVVLEASGPDLDLRVVAVIPLPPPEEDPEKYSAGG [r13_839_TrMRF] | 0.268 ± 0.14 |
| SAGGSAGGSMTIVIKVKSKEDALEAAKALLAELGIEEGAEVKKIEVEEVDPENKEYYVRIEVKSAGGSAGGS [r12_999_TrROS_Hall] | 1.7 ± 0.029 |
| SAKPIPLKNVTINMYKDEKGNYYFKVTLNDKFIGEFEFETTEEALEGAIELAKEIEKIYGPNNIKIKNESAG [r14_791_TrMRF] | 2.7 ± 0.067 |
| SAGGSAGGSAGGVVVVEVEIRLSDEEIEALKDLGISAEDLTLRVTVVVELPPPPPAEEESAGGSAGGSAGGS [r10_1149_TrROS_Hall] | 1.04 ± 0.13 |
| SAGGSAGGSAGSMIEEAVEAAKASGDPDVTVDLETPEGRVTVTVTVDPATGTVTVTTSPESAGGSAGGSAGG [r17_475_JUSTAS] | 2.21 ± 0.077 |
| SAGGSAGGSAGMRKVVTGKEAVVKLTGIPPEVLEAMSEEELRALVAPLVEAGKVDEIELKSAGGSAGGSAGG [r11_80_JUSTAS] | 0.898 ± 0.052 |
| SAGGSMKITKIEIEKLPNGEYKITITKDENGNITVTVTNKNGKKKTITLKVKPEDVEEVLKELLKKSAGGSA [r2_298_TrROS_Hall] | 3.01 ± 0.06 |
| SAGGSAGGSAPMEIWVLIDSPEKAKDLAKEIAHELQQSGIKIKVEVEQPPNGYYLVKIRFDSAGGSAGGSAG [r3_211_TrROS] | 1.81 ± 0.11 |
| SNPENIDKITFTFRWPDGNPMEIEIDPDGTVEYEYPNGWEIEITIDPDDGKLTIEMTFPNGRPQEQKIPISA [r9_99_TrROS] | 2.85 ± 0.097 |
| SAGGKKIKITVKELKKKLEEEGYEIEEIEIYNKKTGKKIKTIKEGDVIELPENVKNVVIKVKIKKKKSAGGS [r8_243_TrROS_Hall] | 2.86 ± 0.17 |
| SAGGSAGGSDPAKKPVYLLATVEVEIGEVVDPNTGEPSHEHRVTVRFLITIDPDGNISISSLTSAGGSAGGS [r12_438_TrMRF] | 3.25 ± 0.18 |
| SAGGSAGPEITPPVVVVTFTFKFPDGKTIEIPTTDLEEGEKEIEKIKKPLLEKKNIELVKVTTKPVSAGGSA [r15_140_JUSTAS] | -0.389 ± 0.36 |
| SAGGSAGGSAGGMKTITIKVPSSVSFEEAKKKAEALFPKSIPVKVEYDPKTGTFTVTVESAGGSAGGSAGGS [r10_163_JUSTAS] | 2.349 ± 0.015 |
| SAGGMTVTVLEVTEEEVIIDDKKEKIITITIKLPDGTEITVTLSTSEIEAKGLTKEEAVEYIAKKLLSAGGS [r16_625_JUSTAS] | 4.16 ± 0.058 |
| SAMKAEVYILVYDKNGKLIAKIPIKAEEVLEDPEKFLETVKTVVEEFSGIGVKLKIYFPSTGKEVEIEASAG [r14_972_TrMRF] | 3.35 ± 0.045 |
| SAGMTFTTVTVERPLGSPEGKPVSLEEVEEYAKKVAEELEPNGFPVENITIELLPDGTAVITMTIKKPLSAG [r14_470_JUSTAS] | 1.86 ± 0.044 |

| Sequence | folding stability dG unfold [kcal/mol] |
| --- | --- |
| SAGGSAGGSAGGMTTTTVSRSPDGTITTTTTTYVPTPDGSVVPVTTTTTTTPIDPAALSSAGGSAGGSAGGS [r10_991_JUSTAS] | 1.39 ± 0.017 |
| SAGGSAALELVEEVSEFYDPNTGKKTTLVVARKDGKPILILIPPSGATVYDASNGNKLFEIPPELLSAGGSA [r15_85_JUSTAS] | 1.16 ± 0.074 |
| SAGGSAGGSVPLELELTFKLENGSFIVVKAKIEFNPETPEFKVEVLSVEIFLEPEGKIVSDEDFSAGGSAGG [r6_864_TrMRF] | 3.08 ± 0.085 |
| SAGGSAGGGMKITEITIEKDPENPDTYTITIKVDGKTYTITVKKGETLYIFDKDGKLVLEIKVDSAGGSAGG [r6_920_TrROS_Hall] | 5.24 ± 0.14 |
| SAGGRKAKVTVTLPDGTVVELELEFKTEEEFEKAVKEKLEELFGKSIEEVPFVEKKVTVYDPEKGSKSESAG [r5_482_JUSTAS] | 2.18 ± 0.12 |
| SAGGSAGGSAGMKIKFPNGKVVEIHMDEDSGNIEIEFPDGKKKEINIPGMSIDDILDYLKSAGGSAGGSAGG [r11_729_TrROS] | 1.46 ± 0.033 |
| SAGGSAMLTLLYRVPPGDPLAHAREIAEALEERFGAKVRILDVKVERDPVTREVYIPVVVELELPESAGGSA [r15_70_TrMRF] | 1.3 ± 0.16 |
| SAGGSAGGSAVLDPSSPRPFEIVEVRRVRFEATVSFAGRPRKLEIEVDLLLVRDPSNGRIGSAGGSAGGSAG [r3_391_TrMRF] | 3.54 ± 0.049 |
| SAGGSAGGSGMMFELAFREIKYSPNDSVTIKAELPDGSSITIPTKKGEIKFKLPENGYVKVLGSAGGSAGGS [r12_746_JUSTAS] | -0.514 ± 0.55 |
| SAGGSAGGSAGGMPPATTVVEKPETSLTLEKTPTTVTIHDKATGKTSTVPAAEVDPALLSAGGSAGGSAGGS [r10_512_JUSTAS] | 0.297 ± 0.075 |
| SAGGSAGGSAGGSSKNRPLVIIDYPFYTSNPDYIVRATFINYLDENNNITEVKVEVLKASAGGSAGGSAGGS [r4_75_TrMRF] | 3.14 ± 0.095 |
| SAGGSAGGSMETTREELPPELTVERVTEREPGEGRITVRVKVYRPDGTLLSEEVVERDPEDLESAGGSAGGS [r12_240_JUSTAS] | 0.166 ± 0.14 |
| SAAAAVAAAVAATLEALLPPGYRITAVTAEVAPDGTVTIPVTVEGPDGVPTLVVVTVDLATGEITVTVFGSA [r9_219_TrMRF] | 4.63 ± 0.21 |
| SMTPEEVKALAEELAERLKEEGYEVEVKVTVEEVDGEKYVTIEIEVRRPDGSTETFRLVIREDGSIEIYPSA [r9_1027_TrROS_Hall] | 4.54 ± 0.17 |
| SAGMTTTVTLKAPDGTTATVTIPPDGNAVMTIETPEGTSTRTVPVPADVSIEEILKEYPNYTIVSREAASAG [r5_259_JUSTAS] | 2.05 ± 0.021 |
| SAGGSAGGSAKYITIFFWGSVEEALKSIPIPPGFKVEIDNIHRNPDGWMWVMITIEIPPNMKSAGGSAGGSA [r18_510_TrROS] | 4.36 ± 0.12 |
| SAKVITIKLKIKVKTEEELEKAKELADELAKKLAEEGKKVKVEVVKIEVEENENGEKTVTIEIKIYLEPSAG [r14_48_TrROS_Hall] | 3.72 ± 0.21 |
| SLGPNEDAILEEEAIIDIDPEAFRKAFGFDVPEDTKVLIITRRRVPANGDIETDPEIYIYDPKTKKFYPISA [r9_349_TrMRF] | 2.34 ± 0.067 |
| SAMTVEIEFPPELEVEELVEKLKEAFPGEEIEVEAERDPVEPRLRIRVTVDDPELAEEVEKKLRELVEESAG [r14_443_TrMRF] | 2.21 ± 0.1 |
| SAGGSAGGSAGGAAPDDVKIEIEWDVGVMTMEMMNPGGQPHKMYMIMVSLKIEIEPNADSAGGSAGGSAGGS [r10_1212_TrROS] | 5.09 ± 0.18 |
| SAGGSAGGSAGWGWISVSITFEMEHYDEDGKPKHEHPMPMTIQIPVVRVDPKNGKLEPMPSAGGSAGGSAGG [r17_413_TrROS] | 2.58 ± 0.065 |

test: folding stability dG unfold (combined trypsin and chymotrypsin); higher = more stable
Method in brief: as §1

| Sequence | folding stability dG unfold [kcal/mol] |
| --- | --- |
| SAGGSAEEIARKLAEELAEEGEEVEVEVVEVEVEKVDGKEKVIRIRVKVKLPNGEELELELEIKLDELSAGG [r13_215_TrROS_Hall] | 2.43 ± 0.24 |
| SAGGSMPETVKVRVRNADGSLLTLEITRDADGELTVTLEVDGKTVELSLEELEKLPPGVEVVEVEPSAGGSA [r2_431_TrROS_Hall] | 2.26 ± 0.18 |
| SAGGGPPPVEVTTSTDPSTGKVTTTVTAGPAGTRFTSSSPNGSSTTTTTVTYVGDTWEVSTSSTSSSSAGGS [r16_631_JUSTAS] | 1.31 ± 0.1 |
| SAGGSAGGSAGGIKITPDIRELLRQQGKPFSEEEIQGIAKYIAKHFKEKGFEDVTIRIPWSAGGSAGGSAGG [r7_512_TrROS] | 0.774 ± 0.14 |
| SAGWKPITAEEIKKLVKEFAEKAPPGDKRPVTVEIRLPLPNGRHWVFTIKVERTDNNVKVKIEVQPYNSAGG [r19_220_TrROS] | 3.2 ± 0.11 |
| SAGGPVFLGFEEALEFIEKAFENGEDVVVVARLPDGGLVVLEASGPDLDLRVVAVIPLPPPEEDPEKYSAGG [r13_839_TrMRF] | 1.03 ± 0.091 |
| SAGGSAGGSMTIVIKVKSKEDALEAAKALLAELGIEEGAEVKKIEVEEVDPENKEYYVRIEVKSAGGSAGGS [r12_999_TrROS_Hall] | 1.75 ± 0.14 |
| SAKPIPLKNVTINMYKDEKGNYYFKVTLNDKFIGEFEFETTEEALEGAIELAKEIEKIYGPNNIKIKNESAG [r14_791_TrMRF] | 2.64 ± 0.31 |
| SAGGSAGGSAGGVVVVEVEIRLSDEEIEALKDLGISAEDLTLRVTVVVELPPPPPAEEESAGGSAGGSAGGS [r10_1149_TrROS_Hall] | 1.5 ± 0.21 |
| SAGGSAGGSAGSMIEEAVEAAKASGDPDVTVDLETPEGRVTVTVTVDPATGTVTVTTSPESAGGSAGGSAGG [r17_475_JUSTAS] | 1.86 ± 0.091 |
| SAGGSAGGSAGMRKVVTGKEAVVKLTGIPPEVLEAMSEEELRALVAPLVEAGKVDEIELKSAGGSAGGSAGG [r11_80_JUSTAS] | 0.601 ± 0.13 |
| SAGGSMKITKIEIEKLPNGEYKITITKDENGNITVTVTNKNGKKKTITLKVKPEDVEEVLKELLKKSAGGSA [r2_298_TrROS_Hall] | 2.73 ± 0.1 |
| SAGGSAGGSAPMEIWVLIDSPEKAKDLAKEIAHELQQSGIKIKVEVEQPPNGYYLVKIRFDSAGGSAGGSAG [r3_211_TrROS] | 1.91 ± 0.22 |
| SNPENIDKITFTFRWPDGNPMEIEIDPDGTVEYEYPNGWEIEITIDPDDGKLTIEMTFPNGRPQEQKIPISA [r9_99_TrROS] | 2.94 ± 0.38 |
| SAGGKKIKITVKELKKKLEEEGYEIEEIEIYNKKTGKKIKTIKEGDVIELPENVKNVVIKVKIKKKKSAGGS [r8_243_TrROS_Hall] | 2.57 ± 0.34 |
| SAGGSAGGSDPAKKPVYLLATVEVEIGEVVDPNTGEPSHEHRVTVRFLITIDPDGNISISSLTSAGGSAGGS [r12_438_TrMRF] | 3.15 ± 0.21 |
| SAGGSAGPEITPPVVVVTFTFKFPDGKTIEIPTTDLEEGEKEIEKIKKPLLEKKNIELVKVTTKPVSAGGSA [r15_140_JUSTAS] | -0.583 ± 0.36 |
| SAGGSAGGSAGGMKTITIKVPSSVSFEEAKKKAEALFPKSIPVKVEYDPKTGTFTVTVESAGGSAGGSAGGS [r10_163_JUSTAS] | 2.17 ± 0.046 |
| SAGGMTVTVLEVTEEEVIIDDKKEKIITITIKLPDGTEITVTLSTSEIEAKGLTKEEAVEYIAKKLLSAGGS [r16_625_JUSTAS] | 3.99 ± 0.078 |
| SAMKAEVYILVYDKNGKLIAKIPIKAEEVLEDPEKFLETVKTVVEEFSGIGVKLKIYFPSTGKEVEIEASAG [r14_972_TrMRF] | 3.6 ± 0.23 |
| SAGMTFTTVTVERPLGSPEGKPVSLEEVEEYAKKVAEELEPNGFPVENITIELLPDGTAVITMTIKKPLSAG [r14_470_JUSTAS] | 1.94 ± 0.056 |
